According to patent publication US10858396B2, “HER2 peptide regents and methods” (THE REGENTS OF THE UNIVERSITY OF MICHIGAN, priority 2015, dated 2020):
“Also recorded” adds a separate entry of the source. Each block holds one compound with its values, some of them ahead of it. Ends that are not written are not given here.

Experiments:
HER2-mediated signaling = experiment: Effect of HER2 peptide on cell signaling (western blot); format: cell-based, human; conditions: 48 hours
Description: SKBR3 cells are commonly used to evaluate HER2 signaling, and were grown in 6 well plates to ˜60% confluence. Unlabeled KSP* peptide was added to separate wells at concentrations of 5 and 100 μM. Lapatinib, a tyrosine kinase inhibitor, was used as a positive control and was added in concentrations of 1, 25, 100 and 1000 nM. Lapatinib stock solution starting at 1 mg/mL was diluted in DMSO and PBS. 1% DMSO treated cells and untreated cells were used as control. After 48 hours following treatment, the cells were harvested for western blot analysis. Anti-HER2 antibody (Cell Signaling, #2165), phospho-HER2/ErbB2 (Tyr1248) antibody (Cell Signaling, #2247), anti-AKT (Cell Signaling, #4691P), anti-ERK1/2 (Cell Signaling, #4695P), anti-phospho-AKT (pS473), (Cell Signaling, #4060P), anti-phospho-ERK1/2 (Cell Signaling, #4370P) and anti-tubulin (Invitrogen, #32-2600) were used per manufacturer's instructions.

HER2 [1] = molecular target: T1, HER2 (Homo sapiens, UniProt P04626); experiment: Competition for peptide reagent binding with unlabeled KSP* on HT29 cells; set-up: host or cells: HT29; conditions: unlabeled KSP* 0, 10, 25, 50, 100 μM, then 2 μM KSP*-Cy5.5
Description: Specific binding of KSP*-Cy5.5 to HT29 cells was validated on competitive inhibition with unlabeled KSP* peptide reagent. ˜7500 HT29 cells were grown to ˜70% confluence on cover slips in triplicate. Unlabeled KSP* peptide at 0, 10, 25, 50, and 100 μM were added and incubated with the cells for 30 min at 4° C. The cells were washed 3× with PBS, and further incubated with 2 μM of KSP*-Cy5.5 for another 30 min at 4° C. The cells were washed 3× with PBS and fixed with 4% PFA for 10 min. The cells were washed with PBS and mounted with ProLong Gold reagent containing DAPI (Invitrogen). Confocal fluorescence images were collected at each concentration, and intensities from 3 independent images were quantified using custom Matlab (Mathworks) software.

HER2 [2] = molecular target: T1, HER2; experiment: Confocal microscopy of FITC-labeled candidate peptides binding to Flo1-HER2 and Q-hTERT (control) cells; format: cell-based; conditions: FITC-labeled peptide 10 μM, Flo1-HER2 relative to Q-hTERT cells
Description: Flo-1-Her2 and Q-hTERT cells were seeded with ˜7,500 cells in 12-well plates with 1.5 mm thick glass cover slides, and grown to ˜70% confluence. The cells were gently washed with cold PBS before adding the peptide. 10 μM of FITC-labeled peptide was added to each well and incubated at 4° C. for 1 hour. After incubation, the cells were washed 3× with PBS, fixed in ice-cold 4% PFA for 10 min, and washed 1× with PBS. Subsequently, the cells were embedded on microscope slides with ProLong Gold reagent containing DAPI (Invitrogen), and the slides where analyzed with a Leica TCS SP5 confocal microscope using 63× oil immersion objective (Leica Microsystems, Leider Lane IL). The FITC-labeled peptides and anti-HER2 antibody were tested in quadruplicate.

[3] = molecular target: T2, colonic adenomas that over express HER2 (Mus musculus, UniProt P70424); experiment: In vivo endoscopic NIR imaging of mouse colonic adenomas, topical peptide reagent; conditions: CPC;Apc mice
T2 construct: validate over expression of HER2 in mouse colonic dysplasia; from tissue; host or cells: colonic adenomas / colon of CPC;Apc mice (in vivo, excised colon, fixed sections)
Description: Mouse imaging studies were performed with approval of the University of Michigan Committee on the Use and Care of Animals (UCUCA). The mice were housed in pathogen-free conditions and supplied water ad libitum under controlled conditions of humidity (50±10%), light (12/12 hour light/dark cycle) and temperature (25° C.). Anesthesia was induced and maintained via a nose cone with inhaled isoflurane mixed with oxygen at a concentration of 2-4% at a flow rate of ˜0.5 L/min. The colon was first rinsed with tap water to remove mucous and debris. White light illumination was used first to identify anatomic landmarks, including polyps, mucosal folds, colonic segment, and distance of endoscope tip from anus, to register the in vivo images with histology. […] During imaging, we recorded the 1) distance between the endoscope tip and the anus and 2) clockwise location of each region of high intensity. […]
White light and fluorescence videos were exported in avi format with 24 (RGB) and 8 (grayscale) bit digital resolution for the color and fluorescence images, respectively. […] On the fluorescence images, 3 regions of interest (ROI) with dimensions of 25×25 pixels were picked to represent a range of staining for normal and diseased tissues and averaged. The mean intensities within these ROI were determined to calculate the target to-background (T/B) ratio.

[4] = molecular target: T3, HER2 over expressed by mouse colonic dysplasia (Mus musculus, UniProt P70424); experiment: Peptide reagent immunofluorescence on mouse colonic adenoma sections; conditions: 2 μM, 10 min at RT, confocal microscopy
T3 construct: validate over expression of HER2 in mouse colonic dysplasia; from tissue; host or cells: colonic adenomas / colon of CPC;Apc mice (in vivo, excised colon, fixed sections)
Description: Specimens of mouse colonic adenoma were formalin fixed and processed, as described previously. Serial 5 μm sections were incubated with 2 μM of each peptide for 10 min at RT. The sections were washed 3× with PBS, and mounted with Prolong Gold reagent containing DAPI (Invitrogen). Adjacent sections were processed for histology (H&E).

HER2 [5] = molecular target: T1, HER2; experiment: Confocal fluorescence microscopy of peptide reagent binding to HT29 and SW480 cells; format: cell-based; set-up: host or cells: HT29, SW480; conditions: 5 μM, 30 min at 4° C.
Description: Cells were washed with PBS and incubated with 5 μM of KSP*-Cy5.5 and PPS*-Cy5.5 for 30 min at 4° C. The cells were then washed 3× in PBS, fixed with ice cold 4% paraformaldehyde (PFA) for 10 min, washed 1× with PBS, and then mounted on glass slides with ProLong Gold reagent containing DAPI (Invitrogen). Confocal fluorescence images were collected with Cy5.5, and DAPI filters (Leica Inverted SPSX Confocal Microscope System). For antibody staining, the cells were pre-fixed with cold methanol for 10 min at −20° C. and blocked with 2% BSA for 30 min at RT. Cells were incubated with 1:450 dilution of anti HER2 antibody overnight at 4° C. The cells were washed 3× with PBS and processed for secondary staining. Goat-anti rabbit Alexa-Fluor 488 (AF488) was added to the cells and incubated for 1 hour at RT. Cells were further washed 3× with PBS and mounted onto glass cover slips. Fluorescence intensities from 3 independent images were quantified using custom Matlab (Mathworks) software.

ErbB2 (HER2) = molecular target: T4, ErbB2 (HER2) (Homo sapiens, UniProt P04626); experiment: Staining of FFPE human Barrett's esophagus specimens with peptide reagents; conditions: excised human specimens, 5 μM, 10 min
T4 construct: specimens of human esophagus were obtained from an archived tissue bank; from tissue; host or cells: FFPE human esophagus (SQ, BE, LGD, HGD, EAC)
Description: Formalin-fixed, paraffin-embedded (FFPE) specimens of human esophagus were obtained from an archived tissue bank. 5 μm thick sections were cut, and mounted onto glass slides (Superfrost Plus, Fischer Scientific). The tissues were deparaffinized, and antigen retrieval was performed. The sections were blocked with protein serum for 15 min at room temperature followed by rinsing with PBS. The sections were then stained with either KSP*-Cy5.5 or RHP*-Cy5.5 at 5 μM concentration for 10 min at room temperature. The sections were then washed 3× for 3 min with PBS and further incubated with anti-HER2 antibody overnight at 4° C. Sections were washed 3× with PBST and mounted with Prolong Gold reagent containing DAPI (Invitrogen) using #1 cover glass ([…]).

T2 sequence (P70424 23-1256): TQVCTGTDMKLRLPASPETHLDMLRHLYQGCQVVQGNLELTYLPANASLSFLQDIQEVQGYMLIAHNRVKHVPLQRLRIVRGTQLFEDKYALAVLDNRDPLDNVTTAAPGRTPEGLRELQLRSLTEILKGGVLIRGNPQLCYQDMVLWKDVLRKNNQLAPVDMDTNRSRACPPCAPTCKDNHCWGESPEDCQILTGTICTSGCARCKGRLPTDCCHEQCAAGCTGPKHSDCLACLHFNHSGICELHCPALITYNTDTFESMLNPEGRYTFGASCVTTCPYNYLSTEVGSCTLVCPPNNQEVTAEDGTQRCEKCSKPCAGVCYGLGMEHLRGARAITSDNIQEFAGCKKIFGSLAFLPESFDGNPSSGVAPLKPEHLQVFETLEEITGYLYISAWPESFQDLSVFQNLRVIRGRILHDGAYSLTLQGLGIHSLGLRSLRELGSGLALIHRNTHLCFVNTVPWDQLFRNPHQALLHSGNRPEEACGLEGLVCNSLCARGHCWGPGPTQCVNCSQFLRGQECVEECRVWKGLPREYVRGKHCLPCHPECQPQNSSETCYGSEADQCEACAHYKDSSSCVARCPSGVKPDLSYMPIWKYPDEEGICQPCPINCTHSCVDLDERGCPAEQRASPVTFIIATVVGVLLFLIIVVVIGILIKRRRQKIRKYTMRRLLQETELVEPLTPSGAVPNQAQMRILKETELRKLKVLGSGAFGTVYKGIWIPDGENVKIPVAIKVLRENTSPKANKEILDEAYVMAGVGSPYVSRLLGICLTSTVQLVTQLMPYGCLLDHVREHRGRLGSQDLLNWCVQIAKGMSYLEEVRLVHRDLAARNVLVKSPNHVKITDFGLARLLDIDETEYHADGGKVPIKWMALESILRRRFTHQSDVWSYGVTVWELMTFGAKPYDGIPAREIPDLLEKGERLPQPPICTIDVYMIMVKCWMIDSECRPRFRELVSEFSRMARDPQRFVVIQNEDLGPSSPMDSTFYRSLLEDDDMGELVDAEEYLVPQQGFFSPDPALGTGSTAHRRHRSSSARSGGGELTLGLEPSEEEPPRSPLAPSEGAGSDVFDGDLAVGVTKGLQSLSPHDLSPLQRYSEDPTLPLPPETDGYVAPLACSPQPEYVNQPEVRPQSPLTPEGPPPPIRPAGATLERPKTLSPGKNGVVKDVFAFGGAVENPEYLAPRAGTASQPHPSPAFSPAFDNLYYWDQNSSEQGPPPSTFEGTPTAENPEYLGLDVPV
T3 sequence (P70424 23-1256): as above

Compound: CS(=O)(=O)CCNCc1ccc(-c2ccc3ncnc(Nc4ccc(OCc5cccc(F)c5)c(Cl)c4)c3c2)o1 [lapatinib]
phosphorylation of HER2 (p-HER2), AKT (p-AKT) and ERK (p-ERK) (HER2-mediated signaling; 1 to 1000 nM): reduced expression; also recorded: dose dependent reduction

Compound: KSP*: unlabeled KSP* peptide (KSPNPRF without Cy5.5 fluorophore)
phosphorylation of HER2 (p-HER2), AKT (p-AKT) and ERK (p-ERK) (HER2-mediated signaling; 5 and 100 μM): no change; also recorded: no reduction | fluorescence intensity of KSP*-Cy5.5 on competition with unlabeled peptide (HER2 [1]): decrease significantly in a concentration dependent manner

mean fluorescence intensity compared with other peptide candidates (HER2 [2]): highest mean fluorescence intensity
Compound: KSPNPRF (also: FITC label, site not given here) [HER2-specific peptide; FITC-labeled for candidate selection]

mean (±std) T/B ratio ([3]; topical 100 μM, 5 min incubation, adenomas): 1.46±0.25 | staining of normal mouse colonic mucosa [4]: Minimal staining | binding to cell surface on confocal microscopy (HER2 [5]): minimal binding | staining with cancer progression in Barrett's esophagus (SQ, BE, LGD, HGD, EAC) (ErbB2 (HER2)): Minimal staining
Compound: PPS*-Cy5.5: scrambled control peptide PPSNFKR linked to Cy5.5 via GGGSK (PPSNFKRGGGSK-{Cy5.5-NH2}; also: Cy5.5 attached via GGGSK linker, end not given here)
NIR fluorescence signal from polyp / flat adenoma ([3]; topical administration): Minimal signal; also recorded: significantly reduced signal
